Assay results: paper PMC6107515, “Factor H binding proteins protect division septa on encapsulated Streptococcus pneumoniae against complement C3b deposition and amplification” (Nature Communications, 2018)

How the values were obtained:
[1] = target: T1, human complement Factor H (human, UniProt P08603 19-1231); assay: SPR; Biacore X100; FH coupled to a CM4 chip, recombinant PspCs injected at five increasing concentrations (kinetic titration); PBS-P+ buffer; fitted with a 1:1 binding model; conditions: both partners purified
T1 construct: complement factor H, human, purified; also called FH

[2] = target: T1, human complement Factor H; assay: as above; conditions: both partners purified; remark: listed apart in the source

T1 sequence (P08603 19-1231): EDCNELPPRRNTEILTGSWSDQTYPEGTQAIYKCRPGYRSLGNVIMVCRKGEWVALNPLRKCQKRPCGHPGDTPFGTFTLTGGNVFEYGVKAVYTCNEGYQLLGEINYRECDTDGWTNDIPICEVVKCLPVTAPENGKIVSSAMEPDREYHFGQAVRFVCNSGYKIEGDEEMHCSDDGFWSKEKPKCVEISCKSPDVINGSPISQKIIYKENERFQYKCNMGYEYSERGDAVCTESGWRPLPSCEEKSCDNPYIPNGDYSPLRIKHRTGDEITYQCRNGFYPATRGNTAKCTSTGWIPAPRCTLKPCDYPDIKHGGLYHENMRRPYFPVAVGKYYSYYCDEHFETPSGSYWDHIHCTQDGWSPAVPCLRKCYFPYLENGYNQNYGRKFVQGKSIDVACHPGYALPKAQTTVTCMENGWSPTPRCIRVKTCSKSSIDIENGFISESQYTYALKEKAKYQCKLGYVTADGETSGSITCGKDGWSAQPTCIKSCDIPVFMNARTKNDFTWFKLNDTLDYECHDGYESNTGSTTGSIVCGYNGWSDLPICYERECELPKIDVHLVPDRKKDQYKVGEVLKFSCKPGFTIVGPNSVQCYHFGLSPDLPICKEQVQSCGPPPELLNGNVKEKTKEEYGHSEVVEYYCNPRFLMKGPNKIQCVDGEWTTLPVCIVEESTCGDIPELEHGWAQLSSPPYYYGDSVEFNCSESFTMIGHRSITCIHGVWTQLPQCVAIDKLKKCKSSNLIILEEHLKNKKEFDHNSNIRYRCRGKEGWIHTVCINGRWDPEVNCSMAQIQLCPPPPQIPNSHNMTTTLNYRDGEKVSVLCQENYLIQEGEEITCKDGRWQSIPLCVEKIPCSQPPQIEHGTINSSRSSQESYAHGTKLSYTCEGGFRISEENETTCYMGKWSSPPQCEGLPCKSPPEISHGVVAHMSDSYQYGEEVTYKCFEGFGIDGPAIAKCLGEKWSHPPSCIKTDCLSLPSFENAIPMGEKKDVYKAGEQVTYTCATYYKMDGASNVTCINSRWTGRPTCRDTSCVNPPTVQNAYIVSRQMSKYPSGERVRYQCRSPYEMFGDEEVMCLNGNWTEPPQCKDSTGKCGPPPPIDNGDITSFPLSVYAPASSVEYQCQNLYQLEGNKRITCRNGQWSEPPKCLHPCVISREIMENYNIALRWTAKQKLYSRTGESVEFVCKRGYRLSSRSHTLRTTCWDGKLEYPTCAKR

B1: recombinant PspC1 (BHN418) (domain or fragment)
chain: EEVGGRNTPTVTSSGQDISKKYADEVESHLKKILSEIQTQLDRKRHTKTVALINELQDIKKTYLYNLNVLKEKSELPSKIKAKLEVAFDQFKKDTLKPGEKVAEAEKKVAEAKKKAEDQKEEDRRNYPTNTYKTLELEIAESDVKVKEAELELVNEEAKPGNEEKIKKAKAKVESEKAEAIRLEEIKTDREEAKRKADAKLKEAVENNAATSEQGEPKRRVKRGVLGEPATPDKKENDAKSSDSSVGEETLPSPSLKPEKKVAEAEKKAKDQKEEDRRNYPTNTYKTLELEIAESDVKVKEAELELVKEEAKESRNEEKVKQAKAKVESKKAEATRLEKIKTDRKKAEEAKRKAAEEDKVKEKPAEQPQPAPAPQPEKPAPKPEKPAPAPKPENPAEQPKAEKPADQQAEEDYARRSEEEYNRLTQQQPPKTEKPAQPSTPKTGWKQENGMWYFYNTDGSMA
For B1, the Kd [1] was 0.09 nM, the koff [1] was 6.2e-05 s⁻¹ and the kon [1] was 690000 M⁻¹ s⁻¹. The Kd [2] was 0.0908 nM.

B2: recombinant PspC2 (BHN418) (domain or fragment)
chain: TEKEGSTQAATSFNRGNGSQAEQRGELDLERDKAMKAVSEYVGKMVRDAYVKSDRKRHKNTVALVNQLGNIKNRYLNEIVHSTSKSQLQELMMKSQSEVDEAVSKFEKDSFSSSSSGSSTKPETPQPENPEHQKPTTPSPDTKPSPQPEGKKPSVPDINQEKEKAKLAVVTYMSKILDDIQKHHLQKEKHRQIVALIKELDELKKQALSEIDNVNTKVEIENTVHKIFADMDAVVTKFKKGLTQDTPKEPGNKKPSAPKPGMQPSPQPEVKPQLEKPKPEVKPQPEKPKPEVKPQPEKPKPEVKPQPEKPKPEVKPQPEKPKPEVKPQPEKPKPEVKPQPEKPKPEVKPQPEKPKPEVKPQPEKPKPEVKPQPEKPKPEVKPQPEKPKPEVKPQPEKPKPEVKPQPEKPKPEVKPQPEKPKPEVKPQPEKPKPEVKPQPEKPKPEVKPQPEKPKPEVKPQPEKPKPEVKPQPEKPKPEVKPQPEKPKPDNSKPQADDKKPSTTNNLSKDKQPSNQASTNEKATNKPKK
notes: PspC2 of Streptococcus pneumoniae BHN418, lacking the LPxTG motif and the first 37 aa (signal peptide); whole precursor given in Supplementary Data 1; cloned NdeI/XhoI in pET28a; source: E. coli Rosetta (DE3), purified (Ni-NTA, thrombin, Ni-NTA, Superdex 75); not shown: 6xHis, N-terminal, cleaved
With B2 the Kd [1] was 0.013 nM, the koff [1] was 5.5e-05 s⁻¹ and the kon [1] was 4.1e+06 M⁻¹ s⁻¹.
